Target: Spc105-mCherry (S. cerevisiae) (UniProt P53148)
Assay: co-IP; RFP-Trap beads (Chromotek) on cleared yeast lysates in buffer H 0.15 (25 mM HEPES pH 8.0, 150 mM KCl, 0.1% IGEPAL), overnight; blots with anti-GFP and anti-DsRed; band intensities by ImageJ, normalised to full length, input and Spc105 IP

UniProt P53148, sequence (P53148 whole entry): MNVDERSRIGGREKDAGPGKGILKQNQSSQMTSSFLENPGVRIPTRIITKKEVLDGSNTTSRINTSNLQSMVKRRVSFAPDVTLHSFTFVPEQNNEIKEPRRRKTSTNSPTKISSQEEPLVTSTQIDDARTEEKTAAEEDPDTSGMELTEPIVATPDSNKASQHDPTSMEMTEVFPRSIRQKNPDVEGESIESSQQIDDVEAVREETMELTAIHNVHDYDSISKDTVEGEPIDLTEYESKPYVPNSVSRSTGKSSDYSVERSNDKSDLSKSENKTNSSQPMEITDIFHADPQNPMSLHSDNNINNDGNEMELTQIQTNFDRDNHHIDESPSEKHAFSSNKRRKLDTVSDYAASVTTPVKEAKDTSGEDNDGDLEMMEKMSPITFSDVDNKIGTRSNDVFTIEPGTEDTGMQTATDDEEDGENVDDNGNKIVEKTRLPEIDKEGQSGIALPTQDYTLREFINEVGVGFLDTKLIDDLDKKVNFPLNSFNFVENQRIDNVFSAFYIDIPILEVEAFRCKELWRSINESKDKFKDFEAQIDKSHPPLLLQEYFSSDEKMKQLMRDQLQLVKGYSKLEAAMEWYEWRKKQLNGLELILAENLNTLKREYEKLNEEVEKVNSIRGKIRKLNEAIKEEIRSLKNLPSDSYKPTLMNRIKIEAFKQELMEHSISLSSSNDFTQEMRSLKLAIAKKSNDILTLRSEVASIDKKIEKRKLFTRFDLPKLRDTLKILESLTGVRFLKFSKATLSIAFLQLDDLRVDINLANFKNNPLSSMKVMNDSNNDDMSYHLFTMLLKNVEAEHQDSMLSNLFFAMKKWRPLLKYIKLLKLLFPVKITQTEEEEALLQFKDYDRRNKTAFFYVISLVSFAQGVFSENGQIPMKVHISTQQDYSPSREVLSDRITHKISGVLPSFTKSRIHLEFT

A reduction of co-precipitation against full-length Kre28 of 40% was found for “GFP-kre28^Δ127–182 (from UniProt Q04431 1-385) (natural protein)” in this work.
